In patent US20240343803A1 (SHANDONG SIMCERE BIOPHARMACEUTICAL, published 2024) one finds IC50 and EC50 data, which are given here for 7 molecules.

A word on the IC50: it is the concentration that gives 50% inhibition. What is called EC50 is the concentration that produces a half-maximal response.

For assay [1], the target named is T1, human PVRIG-his (AcroBiosystems, Cat NO. PVG-H52H4) (human, UniProt Q6DKI7 41-171, limits assumed).
T1 construct: also called human PVRIG protein
T1 sequence (looked up): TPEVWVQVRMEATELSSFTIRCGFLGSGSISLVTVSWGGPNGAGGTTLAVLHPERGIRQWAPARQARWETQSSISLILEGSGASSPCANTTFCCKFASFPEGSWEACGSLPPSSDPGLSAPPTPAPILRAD
Description: competition ELISA, PVRIG-His coated, competitor human PVRL2-mFc. On the procedure: The ELISA plate was pre-coated with 100 μL/well of 0.5 μg/mL human PVRIG-his protein (AcroBiosystems, Cat NO. PVG-H52H4). The tested anti-PVRIG antibodies were diluted from the highest concentration of 16 nM (two-fold concentration). The diluted antibodies were mixed with 18 ng/ml human PVRL2-mFc (AcroBiosystems, Cat NO. CD2-H5257) in equal volume, added into the plate (100 μL/well), and incubated with shaking at room temperature for 2.0 hours. […] A HRP substrate, TMB (Thermo, Cat NO. 34029) was added into wells after washing the plate again for color development. After adding a termination solution to terminate the reaction, the absorbance value was read by a microplate reader (MD i3×). An inhibiting curve was drawn with concentration of antibodies as the abscissa and the corresponding OD value as the ordinate. The IC50 value was calculated by using a Four Parameter Logistic Fit (GraphPadPrism9). The smaller the IC50 value, the stronger the ability of the antibodies inhibits the binding between PVRIG and PVRL2. The positive and negative controls are the same as in Example 8.
In general terms: ELISA stands for enzyme-linked immunosorbent assay.

Assay [2] has as its target T2, Fusion protein of extracellular domain of cynomolgus monkey TIGIT and mouse IgG2a Fc fragment (cynomolgus … (cynomolgus monkey)).
T2 construct: The entry includes the signal peptide (limits not recoverable) and the mouse IgG2a Fc
Description: ELISA, cynomolgus monkey TIGIT ECD-mFc.

Assay [3] concerns the target T3, TIGIT on human PBMCs stimulated by SEA (human, UniProt Q495A1 22-244).
T3 construct: whole, on cells
T3 sequence (looked up): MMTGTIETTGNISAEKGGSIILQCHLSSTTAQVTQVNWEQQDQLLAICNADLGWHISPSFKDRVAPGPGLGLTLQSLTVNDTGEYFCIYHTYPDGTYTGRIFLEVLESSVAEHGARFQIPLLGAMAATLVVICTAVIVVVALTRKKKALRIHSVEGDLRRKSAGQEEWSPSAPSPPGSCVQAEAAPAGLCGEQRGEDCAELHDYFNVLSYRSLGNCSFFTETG
Description: FACS; binding to SEA-stimulated human PBMC. On the procedure: The fresh human PBMCs (AllCells, PB004-C) were adjusted to a density of 5×10⁵/mL, added with SEA (Toxin Technology, Inc., CAT: AT101) to 100 ng/ml, and cultured at 37° C. with 5% CO₂ for 3 days. The cells were collected 3 days later, washed once with PBS (Hyclone, CAT #SH30256), added with Fc Block (BD, 564220) and then incubated at 4° C. for 10 minutes. After washing twice with PBS, the PBMCs were resuspended to 2×10⁵/50 μL with 1% BSA-PBS. The humanized antibodies were diluted to 80 nM with 1% BSA-PBS (diluted by 3-fold serial dilution for 12 concentration points). The 50 μL cells were then mixed with 50 μL diluted antibodies, and then incubated at 4° C. for 60 minutes. […] After washing twice with PBS, the cell samples were resuspended with 1% BSA-PBS, 100 μL/well and then analyzed by flow cytometry (BD, Canto II).
A general note: Flow cytometry measures light scatter and fluorescence of single cells or particles in a stream.

The target in assay [4] is T4, Full-length cynomolgus monkey TIGIT on CHO-K1 cells (CHO-K1 cynomolgus monkey TIGIT) (cynomolgus monkey).
T4 construct: NCBI XP_015300911.1
T4 sequence (chain, as listed by the source limits assumed): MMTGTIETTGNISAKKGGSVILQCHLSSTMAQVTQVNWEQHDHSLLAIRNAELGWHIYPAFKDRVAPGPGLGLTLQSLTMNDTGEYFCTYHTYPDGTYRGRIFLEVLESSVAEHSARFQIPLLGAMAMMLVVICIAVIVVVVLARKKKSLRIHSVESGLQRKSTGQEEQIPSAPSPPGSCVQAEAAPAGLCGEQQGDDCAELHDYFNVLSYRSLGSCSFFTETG
Description: cell binding, CHO-K1 cynomolgus monkey TIGIT. In outline:
(§1)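 Binding was measured by flow cytometry after a 60-minute, 4° C incubation of the antibodies with 2×10⁵ CHO-K1 cells displaying full-length human or cynomolgus monkey TIGIT. Antibody titration: 12 points, threefold serial dilution from 80 nM, in 1% BSA-PBS.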

The target of assay [5] is T5, Full-length human TIGIT on CHO-K1 cells (CHO-K1 human TIGIT) (human, UniProt Q495A1 22-244).
T5 construct: NCBI XP_024309156.1; the entry includes the signal peptide (limits not recoverable); The strain (high, medium, low) is named under assay; also called high expression strain 1D2; medium expression strain 2D10
T5 sequence: T3 sequence (looked up)
The assay can be described thus: FACS; CHO-K1 human TIGIT medium expression strain. An outline of the steps: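 Binding curves from flow cytometry on CHO-K1 cells bearing full-length human or cynomolgus monkey TIGIT yielded the EC50. A 3-fold, 12-point antibody series starting at 80 nM before the 1:1 mix with cells in 1% BSA-PBS was incubated at 4° C for 60 min.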

For assay [6], the target named is T6, Fusion protein of extracellular domain of human TIGIT and human IgG1 Fc fragment (human TIGIT ECD-hFc) (human).
T6 construct: The entry includes the signal peptide (limits not recoverable) and the human IgG1 Fc
T6 sequence (chain, as listed by the source limits assumed): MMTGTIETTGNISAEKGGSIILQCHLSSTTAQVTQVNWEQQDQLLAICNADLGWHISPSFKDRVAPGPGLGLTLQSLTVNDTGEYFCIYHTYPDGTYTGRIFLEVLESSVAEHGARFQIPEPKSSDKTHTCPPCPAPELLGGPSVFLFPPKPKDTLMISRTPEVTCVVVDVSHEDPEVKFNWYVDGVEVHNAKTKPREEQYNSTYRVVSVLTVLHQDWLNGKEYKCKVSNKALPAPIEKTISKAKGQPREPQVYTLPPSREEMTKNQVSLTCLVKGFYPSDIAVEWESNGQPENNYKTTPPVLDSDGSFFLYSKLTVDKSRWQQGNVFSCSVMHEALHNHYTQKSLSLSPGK
Description: blocking of TIGIT ECD-hFc binding to CHO-K1 CD155 cells. An outline of the steps:
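Cell-based ELISA on CHO-K1 CD155 cells, cultured overnight, fixed and blocked with 5% skim milk-PBS. Antibodies were premixed for 0.5 h with human TIGIT ECD-hFc (working concentration 30 ng/mL), then added and held at 37° C for 1.5-2 h. Bound TIGIT was detected with HRP secondary antibody (1:5000, 37° C, 1 h) and TMB, read as OD450 nm. IC50 came from the inhibition curves.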

Assay [7] concerns the target T5, Full-length human TIGIT on CHO-K1 cells …. The assay can be described thus: cell binding, CHO-K1 human TIGIT high expression strain. In outline:
as §1

Residue numbers refer to the chain shown, from its start.

T2 sequence (chain, as listed by the source limits assumed): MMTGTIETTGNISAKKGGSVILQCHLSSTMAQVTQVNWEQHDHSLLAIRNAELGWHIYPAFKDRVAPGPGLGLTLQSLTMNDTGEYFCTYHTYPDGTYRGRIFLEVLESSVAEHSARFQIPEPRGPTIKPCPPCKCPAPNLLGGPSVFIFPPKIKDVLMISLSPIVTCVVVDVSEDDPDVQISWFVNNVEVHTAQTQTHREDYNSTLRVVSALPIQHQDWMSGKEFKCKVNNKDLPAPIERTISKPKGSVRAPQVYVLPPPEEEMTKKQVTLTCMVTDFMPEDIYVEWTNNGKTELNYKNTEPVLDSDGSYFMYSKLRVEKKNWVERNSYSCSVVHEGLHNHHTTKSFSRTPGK

B1: PVRIG-A50 (Fc fusion)
chain: EVQLVESGGGLVQPGGSLRLSCAASGFTFSYYDMSWVRQAPGKGLEWVSTINSNGGRTSYVDSVKGRFTISRDNTKNTLYLQMNSLKPEDTAVYYCVEGDPHNFGLENLSLRDFGSWGQGTQVTVSS
notes: heavy chain antibody VHH-hinge-CH2-CH3, human IgG1 constant part; also called PVRIG-50; not shown: human IgG1 hinge-CH2-CH3
B1 had an IC50 in assay [1] of 0.196 nM.

B2: PVRIG-A105 (Fc fusion)
chain: EVQLVESGGGLVQAGGSLRLSCAASGRTFDRHTMTWFRQAPGKEREFVATASRIPGDTYYSHSVKGRFTISRDNAKNTVYLQLNNLKPEDTAVYYCAATSAYCSEVDCYEKGSWYDNWGQGIQVTVSS
notes: heavy chain antibody VHH-hinge-CH2-CH3, human IgG1 constant part; not shown: human IgG1 hinge-CH2-CH3
B2 yielded an IC50 in assay [1] of 0.0571 nM.

B3: TIGIT-002-H4L3 (antibody, V domains shown)
VH: EVQLQESGPGLVKPSETLSLTCAVSGYSITSDSWNWIRQPPGKKLEYIGYISYSGNTYYNPSLKSRVTISRDTSKNQFSLKLSSVTAADTAVYYCARLDFSNYGGAVDYWGQGTTVTVSS
VL: DIVMTQSPDSLAVSLGERATINCKASQNVRTAVAWYQQKPGQSPKLMIYSASYRYTGVPDRFSGSGSGTDFTLTISSLQAEDVAVYYCQQYYTTPWTFGGGTKVEIK
notes: Humanized anti-TIGIT antibody
For the molecule B3, the half-maximal effective concentration (EC50) in assay [2] is 0.0427 nM; in assay [3], 0.0436 nM; in assay [4], 0.0473 nM; in assay [5], 0.228 nM; in assay [7], 0.0249 nM. In assay [6], this molecule displayed an IC50 of 0.354 nM.

B4: TIGIT-006-H5L3 (antibody, V domains shown)
VH: B3 VH with I29M, S33Y, N56R, L98G, F100Y, V107M, D108Y, Y109D
VL: DIVMTQSPDSLAVSLGERATINCRASQGVSTTIAWYQQKPGQSPKLLIYSASYRYTGVPRFSGSGSGTDFTLTISSLQAEDVAVYYCQQYYSSPFTFGGGTKVEIK
notes: Humanized anti-TIGIT antibody
With B4, the EC50 in assay [2] was determined as 0.0406 nM; in assay [3] it was 0.0916 nM; in assay [4] it was 0.0578 nM; in assay [5], 0.396 nM; in assay [7], 0.022 nM. In addition, the IC50 in assay [6] was found to be 0.587 nM.

B5: TIGIT-005-H2L1d (antibody, V domains shown)
VH: EVQLVQSGAEVKKPGASVKVSCKASGYAFTNYLIEWVRQAPGQRLEWMGVINPGSGGTNYKEKFKGRVTITADKSSSTAYMELSSLRSEDTAVYYCARGEYFFFDYWGQGTTVTVSS
VL: B3 VL with N28H, R30S, T31N, Q38H, M47L, Y91H, T93N, W96H
notes: Humanized anti-TIGIT antibody with NG-site mutation in VL
For the molecule B5, the EC50 was 0.0395 nM in assay [2]; 0.0602 nM in assay [3]; 0.0566 nM in assay [4]; 0.285 nM in assay [5]; 0.0439 nM in assay [7]. In assay [6], this molecule yielded a half-maximal inhibitory concentration (IC50) of 0.376 nM.

B6: PVRIG-A118 (Fc fusion)
chain: QVQLVESGGGLVQAGGSLRLSCAASETYFDLYVMGWYRQAPGKDRELVATITYTGSIKIVDSVKDRFTISRGDAKNTVSLQMSSLKPEDTAVYFCNADPSGLGRKVYWGQGTQVTVSS
notes: as for B2
In assay [1], B6 had a concentration for half-maximal inhibition (IC50) of 0.0513 nM.

B7: TIGIT-070-H1L1 (antibody, V domains shown)
VH: EVQLVQSGAEVKKPGASVKVSCKASGYTFTNYYMHWVRQAPGQRLEWMGRIDPDSGGSKYNEKFKSRVTITVDKSASTAYMELSSLRSEDTAVYYCAREGHYGFYSDYWGQGTTVTVSS
VL: DIQMTQSPSSLSASVGDRVTITCRVSENIYSYLAWYQQKPGKSPKLLIYNAKTLAEGVPSRFSGSGSGTDFTLTISSLQPEDFATYYCQHHYGNPLTFGPGTKVDIK
notes: Humanized anti-TIGIT antibody
As for B7, the EC50 in assay [2] was 0.0347 nM; in assay [3], 0.121 nM; in assay [4], 0.0596 nM; in assay [5], 0.45 nM; in assay [7] it was 0.026 nM. In assay [6], the IC50 was 0.502 nM.
